Molecular target: the molecule itself
Assay: AUC

B1: histidine tagged MutL–NTD (domain or fragment, E. coli, UniProt P23367 1-375, looked up)
chain: MPIQVLPPQLANQIAAGEVVERPASVVKELVENSLDAGATRIDIDIERGGAKLIRIRDNGCGIKKDELALALARHATSKIASLDDLEAIISLGFRGEALASISSVSRLTLTSRTAEQQEAWQAYAEGRDMNVTVKPAAHPVGTTLEVLDLFYNTPARRKFLRTEKTEFNHIDEIIRRIALARFDVTINLSHNGKIVRQYRAVPEGGQKERRLGAICGTAFLEQALAIEWQHGDLTLRGWVADPNHTTPALAEIQYCYVNGRMMRDRLINHAIRQACEDKLGADQQPAFVLYLEIDPHQVDVNVHPAKHEVRFHQSRLVHDFIYQGVLSVLQQQLETPLPLDDEPQPAPRSIPENRVAAGRNHFAEPAAREPVAPR
stoichiometry N: 2
